Laboratory results taken from patent US11844843 (DYNE THERAPEUTICS, dated 2023).

What was measured:
[1] = target: T1, recombinant human TfR1 (transferrin receptor protein 1) (human, UniProt P02786 89-760); experiment: Table 14, Fab-ASO300 conjugate; method not named
T1 construct: Recombinant protein in SPR and ELISA; they were assigned to this molecule; also called hTfR1; huTfR1

[2] = target: T2, recombinant cynomolgus monkey (Macaca fascicularis) TfR1 (cynomolgus monkey (Macaca fascicularis), UniProt Q5RDH6 87-760 (Pongo abelii entry), limits assumed); experiment: Table 14, Fab-ASO300 conjugate; method not named
T2 construct: Recombinant protein; also called cTfR1; cyTfR1
T2 chain: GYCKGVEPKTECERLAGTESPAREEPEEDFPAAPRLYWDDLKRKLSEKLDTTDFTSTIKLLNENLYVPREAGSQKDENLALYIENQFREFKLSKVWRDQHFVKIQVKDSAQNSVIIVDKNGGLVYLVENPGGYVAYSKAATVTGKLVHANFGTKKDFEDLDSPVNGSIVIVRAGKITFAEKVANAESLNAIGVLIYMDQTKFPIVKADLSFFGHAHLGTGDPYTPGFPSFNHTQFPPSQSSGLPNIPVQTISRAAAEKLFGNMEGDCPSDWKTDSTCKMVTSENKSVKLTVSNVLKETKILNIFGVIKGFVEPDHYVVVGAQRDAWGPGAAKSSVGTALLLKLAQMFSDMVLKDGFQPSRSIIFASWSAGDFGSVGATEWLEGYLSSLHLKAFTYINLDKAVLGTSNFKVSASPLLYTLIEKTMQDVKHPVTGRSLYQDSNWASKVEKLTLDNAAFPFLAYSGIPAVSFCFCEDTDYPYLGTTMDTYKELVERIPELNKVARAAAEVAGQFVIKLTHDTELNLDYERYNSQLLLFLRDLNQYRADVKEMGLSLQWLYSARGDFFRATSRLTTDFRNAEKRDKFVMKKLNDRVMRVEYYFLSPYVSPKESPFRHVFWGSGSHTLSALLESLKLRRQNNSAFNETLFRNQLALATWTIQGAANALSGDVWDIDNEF

[3] = target: T1, recombinant human TfR1 (transferrin …); experiment: ELISA on hTfR1, Fab conjugated to DMPK-targeting oligonucleotide, % normalized RFUs
[4] = target: T2, recombinant cynomolgus monkey (Macaca …); experiment: ELISA on cTfR1, Fab conjugated to DMPK-targeting oligonucleotide, % normalized RFUs
[5] = target: T1, recombinant human TfR1 (transferrin …); experiment: ELISA, recombinant TfR1 coated, Fab-ASO300 conjugate (row 'Conjugate binding affinity ELISA')
[6] = target: T2, recombinant cynomolgus monkey (Macaca …); experiment: as above

DMPK oligo conjugate binding [1]: 13.9 nM
DMPK oligo conjugate binding [2]: 13.9 nM
EC50 [3]: 25.5 nM
EC50 [4]: 2.8 nM
EC50 [5]: 23.7 nM
EC50 [6]: 3.3 nM
B1: conjugate of humanized anti-TfR Fab 5H12 VH5 (C33Y)/Vκ4 with DMPK-targeting oligonucleotide ASO300 (Fab, V domains shown)
VH: QVQLVQSGAEVKKPGASVKVSCKASGYSFTDYYINWVRQAPGQGLEWMGWIYPGSGNTRYSERFKGRVTITRDTSASTAYMELSSLRSEDTAVYYCAREDYYPYHGMDYWGQGTLVTVSS
VL: DIVMTQSPDSLAVSLGERATINCRASESVDGYDNSFMHWYQQKPGQPPKLLIFRASNLESGVPDRFSGSGSGTDFTLTISSLQAEDVAVYYCQQSSEDPWTFGQGTKLEIKR
modifications: oligonucleotide ASO300 conjugated to the Fab via linker; residue and chain not stated
